Test results published in patent publication US20240270821A1, “GIP/GLP1/GCG TRI-RECEPTOR AGONISTS AND USES THEREOF” (priority 2023, published 2024).
Positions count from the first letter of the chain named.

T1: human GIP receptor (human) (UniProt P48546)
T1 sequence (looked up): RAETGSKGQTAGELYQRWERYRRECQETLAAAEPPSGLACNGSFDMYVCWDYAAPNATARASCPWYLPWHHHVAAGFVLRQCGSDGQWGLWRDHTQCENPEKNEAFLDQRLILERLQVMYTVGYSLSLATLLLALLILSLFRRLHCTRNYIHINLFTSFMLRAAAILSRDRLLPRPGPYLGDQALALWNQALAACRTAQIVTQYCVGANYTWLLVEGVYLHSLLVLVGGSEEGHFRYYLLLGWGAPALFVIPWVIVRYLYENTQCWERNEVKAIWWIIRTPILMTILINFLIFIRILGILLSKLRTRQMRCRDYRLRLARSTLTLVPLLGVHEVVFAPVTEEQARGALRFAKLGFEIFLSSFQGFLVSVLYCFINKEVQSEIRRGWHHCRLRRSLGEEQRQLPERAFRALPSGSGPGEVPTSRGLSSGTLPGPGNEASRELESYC

B1: Example 76 (peptide)
chain: YXQGTFTSDFSXXLDKKAQXAFIEYLLAGGPSSGAPPPSGS
modifications: synthetic construct; SITE 2: note = 2-Aminoisobutyric Acid; SITE 12: note = L-ornithine; SITE 13: note = alpha-methyl-leucine; SITE 17: note = Lysine is chemically modified through conjugation of the epsilon-amino group of the Lysine side chain with (2-[2-(2-Amino-ethoxy)-ethoxy]-acetyl)-(gamma-Glu)
B2: Example 787 (peptide)
chain: B1 chain with X12Q, A28E, G29X, P31E
modifications: synthetic construct; SITE 2: note = 2-Aminoisobutyric Acid; SITE 13: note = alpha-methyl-leucine; SITE 17: note = Lysine is chemically modified through conjugation of the epsilon-amino group of the Lysine side chain with (2-[2-(2-Amino-ethoxy)-ethoxy]-acetyl)2-(gamma-Glu)-CO-(CH2 )16-CO2H; SITE 20:
B3: Example 780 (peptide)
chain: B1 chain with X12Q, A28E, G29A, G34X, S41T
modifications: no C-terminal amide; synthetic construct; SITE 2: note = 2-Aminoisobutyric Acid; SITE 13: note = alpha-methyl-leucine; SITE 17: note = Lysine is chemically modified through conjugation of the epsilon-amino group of the Lysine side chain with (2-[2-(2-Amino-ethoxy)-ethoxy]-acetyl)-(gamma-Glu)-CO-(CH2) 16-CO2H; SITE 20: n
B4: Example 862 (SEQ ID NO: 868) (peptide)
chain: B1 chain with X12Q, L27I, A28E, G29X
modifications: not fully specified; synthetic construct; SITE 2: note = 2-Aminoisobutyric Acid; SITE 13: note = alpha-methyl-leucine; SITE 17: note = Lysine is chemically modified through conjugation of the epsilon-amino group of the Lysine side chain with (gamma-Glu)3-CO-(CH2)16-CO2H; SITE 20: note = 3-(4-Pyridyl)-L-alanine; SITE 29:
B5: Example 825 (peptide)
chain: YXQGTFTSDXSQXLDKKAQXAFIEYLLEAGPSSXAPPPSGT
modifications: synthetic construct; SITE 2: note = 2-Aminoisobutyric Acid; SITE 10: note = 3-(4-Pyridyl)-L-alanine; SITE 13: note = alpha-methyl-leucine; SITE 17: note = Lysine is chemically modified through conjugation of the epsilon-amino group of the Lysine side chain with (2-[2-(2-Amino-ethoxy)-ethoxy]-acetyl)
B6: Example 789 (peptide)
chain: B1 chain with X12Q, A28E, G29X, P31E, S41E
modifications: synthetic construct; SITE 2: note = 2-Aminoisobutyric Acid; SITE 13: note = alpha-methyl-leucine; SITE 17: note = Lysine is chemically modified through conjugation of the epsilon-amino group of the Lysine side chain with (2-[2-(2-Amino-ethoxy)-ethoxy]-acetyl)-(gamma-Glu)-CO-(CH2) 16-CO2H; SITE 20: n
B7: Example 782 (peptide)
chain: B1 chain with X12Q, A28E, G29X, S41X
modifications: synthetic construct; SITE 2: note = 2-Aminoisobutyric Acid; SITE 13: note = alpha-methyl-leucine; SITE 17: note = Lysine is chemically modified through conjugation of the epsilon-amino group of the Lysine side chain with (2-[2-(2-Amino-ethoxy)-ethoxy]-acetyl)-(gamma-Glu)-CO-(CH2) 16-CO2H; SITE 20: n
B8: Example 784 (peptide)
chain: B1 chain with X12Q, A28E, G29X
modifications: synthetic construct; SITE 2: note = 2-Aminoisobutyric Acid; SITE 13: note = alpha-methyl-leucine; SITE 17: note = Lysine is chemically modified through conjugation of the epsilon-amino group of the Lysine side chain with (gamma-Glu)2-CO-(CH2)16-CO2H; SITE 20: note = 2-Aminoisobutyric Acid; SITE 29:
B9: Example 794 (peptide)
chain: B1 chain with X12R, L27I, A28E, P31E
modifications: synthetic construct; SITE 2: note = 2-Aminoisobutyric Acid; SITE 13: note = alpha-methyl-leucine; SITE 17: note = Lysine is chemically modified through conjugation of the epsilon-amino group of the Lysine side chain with (2-[2-(2-Amino-ethoxy)-ethoxy]-acetyl)-(gamma-Glu)-CO-(CH2) 16-CO2H; SITE 20: n
B10: Example 806 (peptide)
chain: B1 chain with X12R, L27I, A28E, G29X, G30S
modifications: synthetic construct; SITE 2: note = 2-Aminoisobutyric Acid; SITE 13: note = alpha-methyl-leucine; SITE 17: note = Lysine is chemically modified through conjugation of the epsilon-amino group of the Lysine side chain with (2-[2-(2-Amino-ethoxy)-ethoxy]-acetyl)-(gamma-Glu)-CO-(CH2) 16-CO2H; SITE 20: n
B11: Example 883 (SEQ ID NO: 889) (peptide)
chain: B1 chain with F10X, X12Q, L27I, S41E
modifications: synthetic construct; SITE 2: note = 2-Aminoisobutyric Acid; SITE 10: note = 3-(4-Pyridyl)-L-alanine; SITE 13: note = alpha-methyl-leucine; SITE 17: note = Lysine is chemically modified through conjugation of the epsilon-amino group of the Lysine side chain with (gamma-Glu)2-CO-(CH2)16-CO2H; SITE 20:
B12: Example 805 (peptide)
chain: B1 chain with X12K, L27I, A28E, G29X, G30S
modifications: synthetic construct; SITE 2: note = 2-Aminoisobutyric Acid; SITE 13: note = alpha-methyl-leucine; SITE 17: note = Lysine is chemically modified through conjugation of the epsilon-amino group of the Lysine side chain with (2-[2-(2-Amino-ethoxy)-ethoxy]-acetyl)-(gamma-Glu)-CO-(CH2) 16-CO2H; SITE 20: n
B13: Example 801 (peptide)
chain: B1 chain with F10X, X12K, L27I, A28E, G29X
modifications: synthetic construct; SITE 2: note = 2-Aminoisobutyric Acid; SITE 10: note = 3-(4-Pyridyl)-L-alanine; SITE 13: note = alpha-methyl-leucine; SITE 17: note = Lysine is chemically modified through conjugation of the epsilon-amino group of the Lysine side chain with (2-[2-(2-Amino-ethoxy)-ethoxy]-acetyl)
B14: Example 804 (peptide)
chain: B1 chain with L27I, A28E, G29X, G30S
modifications: synthetic construct; SITE 2: note = 2-Aminoisobutyric Acid; SITE 12: note = L-ornithine; SITE 13: note = alpha-methyl-leucine; SITE 17: note = Lysine is chemically modified through conjugation of the epsilon-amino group of the Lysine side chain with (2-[2-(2-Amino-ethoxy)-ethoxy]-acetyl)-(gamma-Glu)
B15: Example 891 (SEQ ID NO: 897) (peptide)
chain: YXQGTFTSDXSQXLDKKAQXAFIEYLIEXGPSSGAPPPSGSGE
modifications: not fully specified; C-terminus uncertain, likely amide; synthetic construct; SITE 2: note = 2-Aminoisobutyric Acid; SITE 10: note = 3-(4-Pyridyl)-L-alanine; SITE 13: note = alpha-methyl-leucine; SITE 17: note = Lysine is chemically modified through conjugation of the epsilon-amino group of the Lysine side chain with (gamma-Glu)2-CO-(CH2)16-CO2H; SITE 20:

Biological target: hGLP-1R (Homo sapiens, UniProt P43220)
Assay: cell-based or functional assay

Chain of hGLP-1R (P43220 24-463): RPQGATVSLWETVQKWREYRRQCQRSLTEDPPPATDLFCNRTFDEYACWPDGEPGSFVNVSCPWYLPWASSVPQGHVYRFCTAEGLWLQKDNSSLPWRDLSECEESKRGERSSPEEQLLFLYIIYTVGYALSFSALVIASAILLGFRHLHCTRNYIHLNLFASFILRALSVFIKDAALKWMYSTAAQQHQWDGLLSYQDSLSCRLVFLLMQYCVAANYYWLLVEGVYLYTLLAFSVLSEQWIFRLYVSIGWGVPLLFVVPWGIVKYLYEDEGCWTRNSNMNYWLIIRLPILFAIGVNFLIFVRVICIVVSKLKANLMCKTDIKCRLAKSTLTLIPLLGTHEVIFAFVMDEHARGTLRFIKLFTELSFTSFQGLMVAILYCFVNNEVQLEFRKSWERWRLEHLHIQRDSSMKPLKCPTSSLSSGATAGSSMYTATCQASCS

| Binder | Relative cAMP EC50 | cAMP Rel EC50, nM (in the presence of 1% HSA) | cAMP Rel EC50, nM (1% HSA) | cAMP Rel EC50 | cAMP Rel EC50 (1% HSA) |
| --- | --- | --- | --- | --- | --- |
| B1 | 2.25 nM | 436 nM | – | – | – |
| B2 | 2.55 nM | – | 382 nM | – | – |
| B3 | 1.26 nM | – | 211 nM | – | – |
| B4 | – | – | – | 201 nM | – |
| B5 | 3.4 nM | – | – | – | 303 nM |
| B6 | 2.74 nM | – | 379 nM | – | – |
| B7 | 1.94 nM | – | 354 nM | – | – |
| B8 | 2.09 nM | – | 284 nM | – | – |
| B9 | 1.26 nM | – | 233 nM | – | – |
| B10 | 0.706 nM | – | – | – | 128 nM |
| B11 | – | – | – | 120 nM | – |
| B12 | 0.715 nM | – | – | – | 146 nM |
| B13 | 0.938 nM | – | – | – | 133 nM |
| B14 | 0.915 nM | – | – | – | 161 nM |
| B15 | – | – | – | 330 nM | – |

Biological target: T1, human GIP receptor (human)
Assay: cell-based or functional assay

| Binder | Relative cAMP EC50 | cAMP Rel EC50, nM (in the presence of 1% HSA) | cAMP Rel EC50, nM (1% HSA) | cAMP Rel EC50 | cAMP Rel EC50 (1% HSA) |
| --- | --- | --- | --- | --- | --- |
| B1 | 0.196 nM | 45.5 nM | – | – | – |
| B2 | 0.0675 nM | – | 18.6 nM | – | – |
| B3 | 0.111 nM | – | 22.1 nM | – | – |
| B4 | – | – | – | 12.4 nM | – |
| B5 | 0.12 nM | – | – | – | 39.3 nM |
| B6 | 0.101 nM | – | 20.4 nM | – | – |
| B7 | 0.0711 nM | – | 15.5 nM | – | – |
| B8 | 0.0587 nM | – | 11.8 nM | – | – |
| B9 | 0.468 nM | – | 68.4 nM | – | – |
| B10 | 0.124 nM | – | – | – | 15.1 nM |
| B11 | – | – | – | 9.41 nM | – |
| B12 | 0.0875 nM | – | – | – | 13 nM |
| B13 | 0.147 nM | – | – | – | 18.1 nM |
| B14 | 0.0751 nM | – | – | – | 17.6 nM |
| B15 | – | – | – | 16 nM | – |

Biological target: human glucagon receptor (human) (UniProt P47871)
Assay: cell-based or functional assay

Chain of human glucagon receptor (human) (P47871 26-477): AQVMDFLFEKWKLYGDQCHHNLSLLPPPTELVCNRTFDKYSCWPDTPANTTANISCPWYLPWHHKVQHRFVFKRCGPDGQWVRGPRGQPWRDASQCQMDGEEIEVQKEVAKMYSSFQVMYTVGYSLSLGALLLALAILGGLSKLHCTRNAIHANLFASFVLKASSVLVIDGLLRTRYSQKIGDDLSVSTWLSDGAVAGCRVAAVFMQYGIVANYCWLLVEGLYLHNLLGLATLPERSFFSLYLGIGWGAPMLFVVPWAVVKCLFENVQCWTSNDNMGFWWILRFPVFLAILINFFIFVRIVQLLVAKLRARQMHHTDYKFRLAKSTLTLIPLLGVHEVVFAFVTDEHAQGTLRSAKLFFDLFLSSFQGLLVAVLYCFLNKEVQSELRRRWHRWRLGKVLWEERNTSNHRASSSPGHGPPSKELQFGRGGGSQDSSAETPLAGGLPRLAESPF

| Binder | Relative cAMP EC50 | cAMP Rel EC50, nM (in the presence of 1% HSA) | cAMP Rel EC50, nM (1% HSA) | cAMP Rel EC50 | cAMP Rel EC50 (1% HSA) |
| --- | --- | --- | --- | --- | --- |
| B1 | 11.1 nM | 2240 nM | – | – | – |
| B2 | 7.81 nM | – | 2060 nM | – | – |
| B3 | 4.84 nM | – | 1250 nM | – | – |
| B4 | – | – | – | 1110 nM | – |
| B5 | 5.53 nM | – | – | – | 1810 nM |
| B6 | 3.3 nM | – | 1200 nM | – | – |
| B7 | 4.96 nM | – | 1380 nM | – | – |
| B8 | 5.21 nM | – | 711 nM | – | – |
| B9 | 1.21 nM | – | 297 nM | – | – |
| B10 | 8.25 nM | – | – | – | 2760 nM |
| B11 | – | – | – | 578 nM | – |
| B12 | 3.97 nM | – | – | – | 1210 nM |
| B13 | 5.51 nM | – | – | – | 1200 nM |
| B14 | 11.5 nM | – | – | – | 2310 nM |
| B15 | – | – | – | 581 nM | – |
